Kd data for 1 molecule are collected here from publication PMC10858482, “Computational design and engineering of self-assembling multivalent microproteins with therapeutic potential against SARS-CoV-2” (Journal of Nanobiotechnology, 2024).

The target of the test is T1, RBD of the S protein of SARS-CoV-2 (Omicron BA.1) (SARS-CoV-2 Omicron BA.1, strain).
T1 construct: also called RBD (Omicron BA.1)
Nature of the test: BLI; Octet RED96e; RBD (Omicron BA.1) immobilised on streptavidin (SA) biosensors; analyte 500-31.25 nM Nb67 or 100-3.125 nM Tr67 in 1x PBS, 0.02% Tween-20, 0.1% BSA; association 1 min, dissociation 3 min; 1:1 binding model. The note with it: both partners purified. For orientation: BLI is a label-free optical method that tracks binding on a fibre tip over time.

B1: nanobody Nb67 (VHH)
VHH: EVQLVESGGGLVQTGGSLRLSCALSGYTFSIFPTAWFRQAPGKEREFVAGIRWNGSTRDYTEYADFVKGRFTISRDNAKNMVYLQMISLKPEDTALYYCAASDGVIDGTNANAYRYWGQGTQVTVSS
notes: also called monovalent Nb67
B1 showed a Kd of 15.2 nM.

As a reminder, the Kd is the free concentration of one partner at which half of the binding sites on the other are occupied at equilibrium, for simple one-to-one binding. Higher therefore signals weaker binding.
